10 substances from patent US20240116985A1, “STAPLED PEPTIDES AND METHODS THEREOF” (priority 2020, published 2024) can be followed below.

The first test has as its target full-length beta-Catenin (Uniprot ID P35222) (Homo sapiens (Human)) (UniProt P35222). Nature of the test: fluorescence polarization competition; displacement of 5FAM-TCF4(10-53) from full-length beta-catenin. (In fluorescence polarisation assays a small probe gives low polarisation when free and higher when bound to something large.)
Target sequence in this assay (P35222 whole entry): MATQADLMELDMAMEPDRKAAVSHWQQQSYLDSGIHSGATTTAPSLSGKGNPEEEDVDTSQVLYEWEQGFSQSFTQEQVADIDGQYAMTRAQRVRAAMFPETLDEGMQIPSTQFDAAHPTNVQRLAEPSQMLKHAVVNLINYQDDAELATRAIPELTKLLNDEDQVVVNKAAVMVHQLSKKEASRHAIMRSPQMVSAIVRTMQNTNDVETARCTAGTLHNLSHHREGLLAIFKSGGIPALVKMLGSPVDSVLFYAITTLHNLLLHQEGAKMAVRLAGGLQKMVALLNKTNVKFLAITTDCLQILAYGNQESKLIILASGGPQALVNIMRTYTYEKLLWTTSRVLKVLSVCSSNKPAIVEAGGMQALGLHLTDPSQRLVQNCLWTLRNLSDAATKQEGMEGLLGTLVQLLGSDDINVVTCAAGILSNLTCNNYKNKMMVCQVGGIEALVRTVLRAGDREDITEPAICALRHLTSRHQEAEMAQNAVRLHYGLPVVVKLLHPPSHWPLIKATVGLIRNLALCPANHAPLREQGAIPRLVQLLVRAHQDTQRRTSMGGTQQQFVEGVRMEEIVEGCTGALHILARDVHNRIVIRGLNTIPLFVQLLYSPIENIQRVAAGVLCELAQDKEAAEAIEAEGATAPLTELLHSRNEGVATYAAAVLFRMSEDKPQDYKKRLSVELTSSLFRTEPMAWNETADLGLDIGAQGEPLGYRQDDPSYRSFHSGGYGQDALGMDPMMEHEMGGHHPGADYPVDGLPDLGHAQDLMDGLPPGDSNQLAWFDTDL
In the case of “I-1519: Ac-PL3-Asp-Cha-B5-Asp-Asp-Ala-Ala-Phe-Leu-PyrS2-3Thi-BztA-Gln-NH2 (peptide)”, the IC50 turned out to be 10 nM.

The target is the same in another test. Nature of the test: fluorescence polarization competition; full-length beta-catenin, 5FAM-TCF4(10-53) probe as competitor.
Target sequence in this assay (P35222 2-781 limits assumed): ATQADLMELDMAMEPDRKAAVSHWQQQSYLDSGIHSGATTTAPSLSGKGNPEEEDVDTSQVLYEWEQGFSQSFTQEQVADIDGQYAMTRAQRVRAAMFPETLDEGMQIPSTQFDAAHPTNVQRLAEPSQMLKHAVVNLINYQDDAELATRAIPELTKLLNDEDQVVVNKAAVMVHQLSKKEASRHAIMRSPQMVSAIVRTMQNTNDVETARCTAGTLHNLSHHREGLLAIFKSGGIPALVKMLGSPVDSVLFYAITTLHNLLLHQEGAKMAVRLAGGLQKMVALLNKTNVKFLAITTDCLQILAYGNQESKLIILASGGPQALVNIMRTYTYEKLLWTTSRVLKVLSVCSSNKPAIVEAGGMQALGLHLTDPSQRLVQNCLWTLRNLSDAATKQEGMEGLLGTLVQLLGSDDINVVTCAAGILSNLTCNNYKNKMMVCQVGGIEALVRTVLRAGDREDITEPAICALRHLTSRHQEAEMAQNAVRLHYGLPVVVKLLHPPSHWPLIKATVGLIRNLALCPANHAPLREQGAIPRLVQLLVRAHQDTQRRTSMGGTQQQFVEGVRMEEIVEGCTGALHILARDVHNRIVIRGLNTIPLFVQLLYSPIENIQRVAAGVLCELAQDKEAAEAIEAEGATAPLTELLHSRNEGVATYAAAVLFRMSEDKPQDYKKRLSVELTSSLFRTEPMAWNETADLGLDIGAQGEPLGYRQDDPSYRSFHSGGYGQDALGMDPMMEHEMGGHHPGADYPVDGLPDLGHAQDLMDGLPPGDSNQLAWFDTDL
Take “Ac-PL3-Asp-Npg-B5-Asp-3COOHF-Ala-Ala-Phe-Leu-PyrS2-2F3MeF-2F3MeW-Gln-NH2 (peptide)”: the IC50 amounted to 6290 nM.
The same measure, in the same setting: the figure for “Ac-PL3-Asp-Npg-B5-Asp-3COOHF-Ala-Ala-Phe-Leu-PyrS2-2F3MeF-SbMe2NapA-Gln-NH2 (peptide)” is 79 nM.
On the same count and under the same terms, the figure for “Ac-PL3-Asp-Npg-B5-Asp-[CH2CChCO2H]TriAzDap-Ala-Ala-Phe-Leu-PyrS2-3Thi-BztA-Gln-NH2 (peptide)” is 5 nM; for “Ac-PL3-Asp-Npg-B5-Asp-[CH2CCpCO2H]TriAzDap-Ala-Ala-Phe-Leu-PyrS2-3Thi-BztA-Gln-NH2 (peptide)” it is 5 nM.

The target is the same in the next test. Nature of the test: fluorescence polarization competition; full-length beta-catenin, 5FAM-TCF4(10-53) probe displaced.
Target sequence in this assay (P35222 whole entry): as the sequence (P35222 whole entry) above
“Ac-PL3-Asp-Npg-B5-Asp-Asp-Ala-Ala-Phe-Leu-PyrS2-2CNF-BztA-Gln-NH2 (peptide)” gave an IC50 of 16 nM.
For “Ac-PL3-Asp-Npg-B5-Asp-Asp-Ala-Ala-Phe-Leu-PyrS2-3CNF-BztA-Gln-NH2 (peptide)”, the IC50 worked out at 81 nM.
With “Ac-PL3-Asp-Npg-B5-Asp-Asp-Ala-Ala-Phe-Leu-PyrS2-4CNF-BztA-Gln-NH2 (peptide)”, the half-inhibitory concentration (IC50) came to 987 nM.
“MeSO2-PL3-Asp-Npg-B5-Asp-Asp-Ala-Ala-Phe-Asn-PyrS2-3Thi-BztA-Gln-NH2 (peptide)”: the IC50 turned out to be 10 nM.
For “MeSO2-PL3-Asp-Npg-B5-Asp-TfeGA-Ala-Ala-Phe-Asn-PyrS2-3Thi-BztA-Gln-NH2 (peptide)”, the IC50 was found to be 7 nM.

As usually defined, the IC50 is the concentration at which inhibition is half-maximal. Lower therefore signals greater potency in that assay.
